Test results: patent EP4644419A1 (Hangzhou Zhongmeihuadong Pharmaceutical Co., Ltd., dated 2025)
Residue numbers refer to the chain shown, from its start.

T1: human CD112R antigen protein huCD112R-His (Acro Biosysterm, PVG-H52H4) (human, UniProt Q6DKI7 41-171)
T1 construct: purchased; also called human antigen protein; not shown: His tag
T1 sequence (looked up): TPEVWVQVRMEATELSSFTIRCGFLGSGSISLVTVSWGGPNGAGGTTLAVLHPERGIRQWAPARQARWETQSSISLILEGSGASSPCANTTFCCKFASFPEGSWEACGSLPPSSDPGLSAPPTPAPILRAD

T2: monkey antigen protein (monkey CD112R, Uniprot ID: A0A2K5WVV8) (monkey, UniProt A0A2K5WVV8 41-171)
T2 sequence: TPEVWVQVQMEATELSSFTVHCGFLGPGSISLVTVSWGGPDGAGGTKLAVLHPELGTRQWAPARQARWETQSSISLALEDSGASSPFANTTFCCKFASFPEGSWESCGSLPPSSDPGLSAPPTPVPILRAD

B1: C125 (antibody, human IgG1, kappa, V domains shown)
VH: EVKLVESGGGLVQPGGSLKLSCAASGFTFSSYTMSWVRQTPEKRLELVAELSNSGGSFHYPDNVKGRFTISRDNAKNTLYLQMSSLKSEDTAMYYCARHNWDVYAMDYWGQGTSVTVSS
VL: DIQMSQSPASLSASVGETVTITCRASENVNSYLAWYQQKQGRSPQFLVYNAQTLAEGVPSRFSGGGSGTQFSLKINSLQPEDFGSYYCQHHYGNPTFGGGTKLEIKR
B2: C110 (antibody, human IgG1, kappa, V domains shown)
VH: EVQLQQSGAELAKPGASVKLSCTVSGFNIKDTYIHWVKQRPEQGLEWIGGIDPAIGNTVSASKFQDKATITADTSSSTAYMQLSSLTSGDTAVYYCARERVHSNTLYYAMDYWGQGTSVTVSS
VL: DIVLTQSPASLAVSLGQRATISCRASKSVSISGYSYMHWYQQKPGQPPKLLIYLASNLESGVPARFSGSGSGTDFTLNIHPVEEEDAATYYCQHSRELPPTFGGGTKLEIKR
B3: C51 (antibody, human IgG1, kappa, V domains shown)
VH: QVQLQQSGAELVRPGASVTLSCKASGYTFTDYEMHWVKQTPVHGLEWIGAIDPETGGTAYNQKFKGKAILTADKSSSTAYMELRSLTSEDSAVYYCTRWITTVVATLYYFDYWGQGTTLTVSS
VL: DIVMTQSQKFMSTSVGDRVSITCKASQNVRTAVAWYQQKPGQSPKALIYLASNRHTGVPDRFTGSGSGTDFTLTISNVQSEDLADYFCLQHWNYPLTFGAGTKLELKR
B4: C118 (antibody, human IgG1, kappa, V domains shown)
VH: QVQLQQPGAELVKPGTSVKLSCKAAGYIFTSSWMHWVKQRPGQGLEWIGEINPSDGRTNYNEKFKNKATLTVDHSSSTAYMQLSSLTSEDSAVYYCASNADRAYYTMDYWGQGTSVTVSS
VL: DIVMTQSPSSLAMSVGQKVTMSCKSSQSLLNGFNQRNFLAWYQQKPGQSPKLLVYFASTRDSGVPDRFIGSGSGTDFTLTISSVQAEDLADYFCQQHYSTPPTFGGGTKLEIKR
B5: C112 (antibody, human IgG1, kappa, V domains shown)
VH: B4 VH with T16A, A25S, I28T, N66S
VL: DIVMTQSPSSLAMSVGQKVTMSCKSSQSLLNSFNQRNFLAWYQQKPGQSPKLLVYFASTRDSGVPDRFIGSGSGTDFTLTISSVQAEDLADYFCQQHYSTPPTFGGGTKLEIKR
B6: C116 (antibody, human IgG1, kappa, V domains shown)
VH: EVKLVESGGGLVQPGGSLKLSCAVSGFTFSSYTMSWVRQTPEKRLELVAKISNSGGSTNYPDTVKGRFTLSRDNVKNTLYLQMSSLKSEDTAIYYCTRYSWDVYAMDYWGQGTSVTVSS
VL: DIQMTQSPASLSASVGETVIITCRASENIYSYLAWYQQKQGKSPHLLVYNAETLVEGVPSRFSGSGSATQFSLKINSLQPEDFGTYYCQHHYGDPTFGGGTKLEIKR
B7: C119 (antibody, human IgG1, kappa, V domains shown)
VH: EVKLVESGGGLVQPGGSLKLSCVASGFTFNTYIMSWVRQTPEKRLELVADISNSGGNTYYSDTVKGRFTISRDNAKNTLYLQMSSLKSEDTAMYYCARPDNWDPFVYWGQGTLVTVSA
VL: DIQMTQSSSSFSVSLGDRVTITCKASEDIYARLAWYQQKPGNAPRLLISGATSLETGVPSRFSGSGSGKNYTLSITSLQTEDVGTYYCQQHWSTPWTFGGGTNLEIKR
B8: C123 (antibody, human IgG1, kappa, V domains shown)
VH: EVQLVESGGGLVKPGGSLKLSCAASGFTFSNFAMSWVRQTPAMRLESVATIVNGGINTYYPDTVKGRFTVSRDNAKNTLYLQMSSLRSEDTAIYYCARHDDFLYYAMDYWGQGTSVTVSS
VL: QIVLTQSPAIMSASPGEKVTMTCSASSSVSYMFWYQQKPGSSPRLLIYDTSNLASGVPVRFSGSGSGTSYSLTISRLEAEDAATYYCQQWTSYPLTFGAGTKLDLKR
B9: C143 (antibody, human IgG1, kappa, V domains shown)
VH: B8 VH
VL: B8 VL with S30N
B10: C43 (antibody, human IgG1, kappa, V domains shown)
VH: QVQLQQPGAELVRPGTSVKLSCKASGNTFTTYWMHWVKQRPGQGHEWIGVIDASDSNTKYNQKFKGKATLTVDTSSSTAYMQLSSLTSEDSAVYYCARYYSGSSYGLDYWGQGTTLTVSS
VL: DIQMTQTASSLSASLGDRVTISCRASQDISNYLNWYQQKPDGTVKLLIYYTSRLHSGVPSRFSGSGSGTDYSLTITNLEQEDIASYFCQQGNMFPPTFGGGTKLEIKR
B11: C69 (antibody, human IgG1, kappa, V domains shown)
VH: EVQLQQSGPVLVKPGASVKMSCKASGYRLTDYYMHWVKQSHGKSLEWIGIINPYNGGTSYNQKFKGKATLTVDKSSSTAYMELNSLTSDDSAVYYCARDSSNVGNDMDYWGQGTSVSVSS
VL: B10 VL with A8T, Q37L, T51S, T76N, S85T, M93T, F94L, P96R, K107R
B12: C25 (antibody, human IgG1, kappa, V domains shown)
VH: B10 VH with T31S, N57K
VL: B10 VL with T76S, S85T, M93T, F94L
B13: C33 (antibody, human IgG1, kappa, V domains shown)
VH: QVQLQQSGPELVKPGASVKISCKASGYTFTDYYINWVKQRPGQGLEWIGWIFPGSGSTYYNEKFKGKATPTVDKYSSTAYMLLSSLTSEDSAVYFCAREDYFDRGDCWGQGTSVTVSS
VL: QIVLTQSPAIMSASPGEKVTMTCSASSSINYMHWYQQKPGTSPKRWIYDTSKLASGVPARFSGSGSGTSYSLTISSMEAEDAATYYCHQRSSYPFTFGSGTKLEIKR
B14: C38 (antibody, human IgG1, kappa, V domains shown)
VH: QVQLQQSGAELMKPGASVKLSCKATGYTFTGYWIEWVKQRPGHGLEWIGEILPESGRTNYNEKFKGKATFTADTSSNTAYMQLSSLTTEDSAIYYCASLLFFDYWGQGTTLTVSS
VL: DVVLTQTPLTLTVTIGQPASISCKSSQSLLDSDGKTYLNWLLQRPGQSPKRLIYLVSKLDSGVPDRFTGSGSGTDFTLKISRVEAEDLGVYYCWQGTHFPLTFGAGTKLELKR
B15: C121 (antibody, human IgG1, kappa, V domains shown)
VH: EVQLQQSGPEVVKPGASVKISCKASGNTFTDYFINWVKQSHGKSLEWIGDINPDNGGTNYNQKFKGKATLTVDKSSGTAFMGLRSLTSEDSAVYYCATLYFDYWGQGTSLTVSS
VL: DIVMTQSPSSLSVSAGEKVTMSCKSSQSLLNSGNQKNYLAWYQQKPGQPPKLLIYGASTRESGVPDRFTGSGSGTDFTLTISSVQAEDLAVYYCQNAHSSPYTFGGGTRLEIKR
B16: C122 (antibody, human IgG1, kappa, V domains shown)
VH: B15 VH with S40R, I51V, Y100F, Y103S, S109T
VL: B15 VL with S12N, V91L, R109K
B17: C9 (antibody, human IgG1, kappa, V domains shown)
VH: EVQLQQSGAELVKPGASVKLSCTASGFNIKDIYMHWLKQRPEQGLEWIGRIDPTNGNSEYDPRFRGKATLTADTSSNIAYLQLSSLTSEDTAVYYCARFGIYPYFDYWGQGTTLTVSS
VL: GIVMTQTPKFLLVSAGDRVTITCKASQSVNKAVVWYQQKPGQSPKLLISYASNRYTGVPDRFTGSGYGTDFTFSISTVQAEDLAVYFCQQDYSSPWTFGGGTKLEIKR
B18: C21 (antibody, human IgG1, kappa, V domains shown)
VH: B17 VH with I51V, R65Q
VL: B17 VL with G1S, S49N
B19: C6 (antibody, human IgG1, kappa, V domains shown)
VH: QVHLHQSGPELVKPGASVKISCKASGYTFTAYYINWVKQRPGQGLEWIGWIFPGSDSTYYNEKFKGRATLTVDKSSSTAYMLLNSLTSEDSAVYFCARDGELRGPFDYWGQGTTLTVSS
VL: DIQMTQSPSSLSASLGGKVTITCKASQDINKYIAWYQHKPGKSPRLLIHYTSTLQAGIPSRFSGSGSGRDYSFSISNLEPEDSATYYCLQYDNLLTFGGGTKLEIKR
B20: C44 (antibody, human IgG1, kappa, V domains shown)
VH: QVQLQQSGPELMKPGASLKISCKASGYTFTDSYINWVKQRPGQGLEWIGWIFPGSGSTYYNEKFKGTATLTVDKSSSTAYMLLSSLTSEDSAAYFCARDGGLRGPFDYWGQGTTLTVSS
VL: B19 VL with S43G, A56S, S72F, P80S, S83I, N93H
B21: C45 (antibody, human IgG1, kappa, V domains shown)
VH: B19 VH with H5Q, E10D, A16V, A31D, D56G, S57T, R67K, N84S, E101G
VL: B19 VL with S26N, H38Y, S43G, A56P, G57D, Y71F, S83I, N93Y, L95Y
B22: C117 (antibody, human IgG1, kappa, V domains shown)
VH: QVQLQQSGAELARPGASVKMSCKASGYTFTDYWMQWVKQRPGQGLEWIGAIFPGNGETRDTQKFKGRATLTADRSSSTAYIQLSSLTSEDSAVYYCATFNNYLDYWGQGTTLTVAS
VL: QIVLTQSPAIMSASPGEKVTMTCSASSSVSYMHWYQQKSGASPKRWIYDTSKLTSGVPARFSGSGSGTSYSLTISNMEAEDAATYYCQQWISNPYTFGGGTKLEIKR
B23: C61 (antibody, human IgG1, kappa, V domains shown)
VH: DVQLQESGPGLVKPSQSLSLTCSVTGYSITSNYYWNWIRQFPGNNLEWMGYISSDGTNNYNPSLRNRISITRDTSKNQFFLKLNSVTTEDTATYYCARGLRYGPWGQGTTLTVSS
VL: QLILTQSSSASFSLGASAKLTCTLSSQHSTYTIEWYQQQPLKAPKYVMEVKNDGSHRTGDGIPDRFSGSSSGADRYLSISNIQPEDEAIYICGVGDINNYIFGGGTKVTVLR

What follows are binders tested against T1, human CD112R antigen protein … (assay: ELISA, huCD112R-His coated on plate).

Row | EC50 [pM] | Binder
1 | 49 | B1
2 | 32 | B2
3 | 228 | B3
4 | 29 | B4
5 | 28 | B5
6 | 25 | B6
7 | 25 | B7
8 | 35 | B8
9 | 25 | B9
10 | 51 | B10
11 | 23 | B11
12 | 52 | B12
13 | 1300 | B13
14 | 64 | B14
15 | 37 | B15
16 | 30 | B16
17 | 52 | B17
18 | 66 | B18
19 | 55 | B19
20 | 53 | B20
21 | 59 | B21
22 | 41 | B22
23 | 89 | B23

Each binder was assayed against T2, monkey antigen protein (monkey CD112R, …) (assay: ELISA, monkey antigen protein (as Example 6.1)).

Row | EC50 [pM] | Binder
24 | 79 | B1
25 | 34 | B2
26 | 224 | B3
27 | 57 | B4
28 | 55 | B5
29 | 61 | B6
30 | 80 | B7
31 | 56 | B8
32 | 40 | B9
33 | 44 | B10
34 | 51 | B11
35 | 3800 | B12
36 | 55 | B15
37 | 31 | B16
38 | 70 | B17
39 | 68 | B18
40 | 58 | B19
41 | 76 | B20
42 | 114 | B21
43 | 45 | B22
